From IntAct's records for PubMed 20142502

B1: Harmonin (Homo sapiens), Q9Y6N9 (parent)
chain: MDRKVAREFRHKVDFLIENDAEKDYLYDVLRMYHQTMDVAVLVGDLKLVINEPSRLPLFDAIRPLIPLKHQVEYDQLTPRRSRKLKEVRLDRLHPEGLGLSVRGGLEFGCGLFISHLIKGGQADSVGLQVGDEIVRINGYSISSCTHEEVINLIRTKKTVSIKVRHIGLIPVKSSPDEPLTWQYVDQFVSESGGVRGSLGSPGNRENKEKKVFISLVGSRGLGCSISSGPIQKPGIFISHVKPGSLSAEVGLEIGDQIVEVNGVDFSNLDHKEAVNVLKSSRSLTISIVAAAGRELFMTDRERLAEARQRELQRQELLMQKRLAMESNKILQEQQEMERQRRKEIAQKAAEENERYRKEMEQIVEEEEKFKKQWEEDWGSKEQLLLPKTITAEVHPVPLRKPKYDQGVEPELEPADDLDGGTEEQGEQDFRKYEEGFDPYSMFTPEQIMGKDVRLLRIKKEGSLDLALEGGVDSPIGKVVVSAVYERGAAERHGGIVKGDEIMAINGKIVTDYTLAEAEAALQKAWNQGGDWIDLVVAVCPPKEYDDELTFF
partner: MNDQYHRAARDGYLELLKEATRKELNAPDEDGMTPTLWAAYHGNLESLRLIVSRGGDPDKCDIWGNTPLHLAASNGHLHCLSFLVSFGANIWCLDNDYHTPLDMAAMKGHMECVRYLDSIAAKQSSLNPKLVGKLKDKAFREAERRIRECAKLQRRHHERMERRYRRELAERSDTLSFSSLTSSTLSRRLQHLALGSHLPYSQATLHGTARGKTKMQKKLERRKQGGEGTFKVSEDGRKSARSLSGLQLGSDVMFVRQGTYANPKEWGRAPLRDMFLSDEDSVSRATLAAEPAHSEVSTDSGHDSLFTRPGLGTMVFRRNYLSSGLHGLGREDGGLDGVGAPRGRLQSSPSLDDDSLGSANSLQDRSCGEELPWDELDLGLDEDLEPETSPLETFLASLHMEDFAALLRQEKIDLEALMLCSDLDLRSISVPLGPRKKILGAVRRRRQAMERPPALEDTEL
B2: pre-mRNA splicing regulator USH1G (Homo sapiens), Q495M9 (parent)
chain: B1 partner
partner: B1 chain

Variants of: B1
Conditions: with ush1g_human USH1G, Q495M9
R103H was tested, and the “effect of a mutation on the interaction” value was “decreasing interaction”.

Variants of: B2
Conditions: with ush1c_human USH1C, Q9Y6N9
With D458V the “effect of a mutation on the interaction” value was “decreasing interaction”.
